± gives the uncertainty stated by the source.

The labels stand for the following.
B1: Tripartite motif-containing protein 44, residues 174 to 218; numbered along this chain, Q96DX7 (parent)
chain: VAKRKCPDHGLDLSTYCQEDRQLICVLCPVIGAHQGHQLSTLDEA

The variants in the data set derive from B1. Description: abundance fitness (aPCA) (normalised: wild type 0, dead -1); higher = more abundant; growth selection in yeast, the domain comes from the species named. To be noted: Homo sapiens.
With VAKRKYPDHGLDLSTYCQEDRQLICVLCPVIGAHQGHQLSTLDEA [C6Y], the abundance fitness is -0.92 ± 0.095. As to VAKRKTPDHGLDLSTYCQEDRQLICVLCPVIGAHQGHQLSTLDEA [C6T], the abundance fitness was -0.783 ± 0.072.

VAKRKEPDHGLDLSTYCQEDRQLICVLCPVIGAHQGHQLSTLDEA [C6E]: the abundance fitness is -0.946 ± 0.087. Consider VAKRKRPDHGLDLSTYCQEDRQLICVLCPVIGAHQGHQLSTLDEA [C6R], for which the abundance fitness was -0.999 ± 0.04.

For the variant VAKRKQPDHGLDLSTYCQEDRQLICVLCPVIGAHQGHQLSTLDEA [C6Q], the abundance fitness is -0.889 ± 0.068. For VAKRKKPDHGLDLSTYCQEDRQLICVLCPVIGAHQGHQLSTLDEA [C6K], the abundance fitness was -0.874 ± 0.073. Turning to VAKRKMPDHGLDLSTYCQEDRQLICVLCPVIGAHQGHQLSTLDEA [C6M], the abundance fitness is -1.04 ± 0.12. With VAKRKVPDHGLDLSTYCQEDRQLICVLCPVIGAHQGHQLSTLDEA [C6V], the abundance fitness was -1.07 ± 0.067. Turning to VAKRKPPDHGLDLSTYCQEDRQLICVLCPVIGAHQGHQLSTLDEA [C6P], the abundance fitness is -1.07 ± 0.17. In the case of VAKRKHPDHGLDLSTYCQEDRQLICVLCPVIGAHQGHQLSTLDEA [C6H], the abundance fitness was -1.1 ± 0.11. For VAKRKAPDHGLDLSTYCQEDRQLICVLCPVIGAHQGHQLSTLDEA [C6A], the abundance fitness is -1.05 ± 0.064.

Regarding VAKRKNPDHGLDLSTYCQEDRQLICVLCPVIGAHQGHQLSTLDEA [C6N], the abundance fitness is -0.889 ± 0.11. The value for VAKRKWPDHGLDLSTYCQEDRQLICVLCPVIGAHQGHQLSTLDEA [C6W] was -1.06 ± 0.069.

Consider VAKRKDPDHGLDLSTYCQEDRQLICVLCPVIGAHQGHQLSTLDEA [C6D], for which the abundance fitness is -0.701 ± 0.076. On to VAKRSCPDHGLDLSTYCQEDRQLICVLCPVIGAHQGHQLSTLDEA [K5S], for which the abundance fitness is -0.125 ± 0.031. Regarding VAKRGCPDHGLDLSTYCQEDRQLICVLCPVIGAHQGHQLSTLDEA [K5G], the abundance fitness was -0.218 ± 0.025.

Consider VAKRFCPDHGLDLSTYCQEDRQLICVLCPVIGAHQGHQLSTLDEA [K5F], for which the abundance fitness is -0.129 ± 0.052. As to VAKRWCPDHGLDLSTYCQEDRQLICVLCPVIGAHQGHQLSTLDEA [K5W], the abundance fitness is -0.308 ± 0.03.

Take VAKRNCPDHGLDLSTYCQEDRQLICVLCPVIGAHQGHQLSTLDEA [K5N]: the abundance fitness is -0.111 ± 0.07. The value for VAKRACPDHGLDLSTYCQEDRQLICVLCPVIGAHQGHQLSTLDEA [K5A] was -0.235 ± 0.027; that for VAKRVCPDHGLDLSTYCQEDRQLICVLCPVIGAHQGHQLSTLDEA [K5V] was -0.135 ± 0.028. Consider VAKRLCPDHGLDLSTYCQEDRQLICVLCPVIGAHQGHQLSTLDEA [K5L], for which the abundance fitness is -0.15 ± 0.028. In the case of VAKRTCPDHGLDLSTYCQEDRQLICVLCPVIGAHQGHQLSTLDEA [K5T], the abundance fitness was -0.115 ± 0.031. The figure for VAKRECPDHGLDLSTYCQEDRQLICVLCPVIGAHQGHQLSTLDEA [K5E] is -0.173 ± 0.03; for VAKRDCPDHGLDLSTYCQEDRQLICVLCPVIGAHQGHQLSTLDEA [K5D] it is -0.409 ± 0.04; for VAKRICPDHGLDLSTYCQEDRQLICVLCPVIGAHQGHQLSTLDEA [K5I] it is -0.198 ± 0.16. For the variant VAKRCCPDHGLDLSTYCQEDRQLICVLCPVIGAHQGHQLSTLDEA [K5C], the abundance fitness is -0.141 ± 0.036. With VAKRQCPDHGLDLSTYCQEDRQLICVLCPVIGAHQGHQLSTLDEA [K5Q], the abundance fitness was -0.163 ± 0.032.

Take VAKRYCPDHGLDLSTYCQEDRQLICVLCPVIGAHQGHQLSTLDEA [K5Y]: the abundance fitness was -0.221 ± 0.06. As to VAKRRCPDHGLDLSTYCQEDRQLICVLCPVIGAHQGHQLSTLDEA [K5R], the abundance fitness was -0.159 ± 0.027. For VAKRHCPDHGLDLSTYCQEDRQLICVLCPVIGAHQGHQLSTLDEA [K5H], the abundance fitness was -0.24 ± 0.063. On to VAKRKCPCHGLDLSTYCQEDRQLICVLCPVIGAHQGHQLSTLDEA [D8C], for which the abundance fitness is -0.103 ± 0.035. In the case of VAKRKCPAHGLDLSTYCQEDRQLICVLCPVIGAHQGHQLSTLDEA [D8A], the abundance fitness is 0.016 ± 0.029. As to VAKRKCPKHGLDLSTYCQEDRQLICVLCPVIGAHQGHQLSTLDEA [D8K], the abundance fitness amounted to 0.047 ± 0.047. As to VAKRKCPHHGLDLSTYCQEDRQLICVLCPVIGAHQGHQLSTLDEA [D8H], the abundance fitness amounted to 0.038 ± 0.058. For VAKRKCPEHGLDLSTYCQEDRQLICVLCPVIGAHQGHQLSTLDEA [D8E], the abundance fitness was 0.044 ± 0.029. The value for VAKRKCPMHGLDLSTYCQEDRQLICVLCPVIGAHQGHQLSTLDEA [D8M] was 0.057 ± 0.034; that for VAKRKCPIHGLDLSTYCQEDRQLICVLCPVIGAHQGHQLSTLDEA [D8I] was 0.029 ± 0.042. VAKRKCPFHGLDLSTYCQEDRQLICVLCPVIGAHQGHQLSTLDEA [D8F]: the abundance fitness was -0.034 ± 0.041. As for VAKRKCPLHGLDLSTYCQEDRQLICVLCPVIGAHQGHQLSTLDEA [D8L], the abundance fitness came to 0.048 ± 0.031. In the case of VVKRKCPDHGLDLSTYCQEDRQLICVLCPVIGAHQGHQLSTLDEA [A2V], the abundance fitness was -0.037 ± 0.028.

Turning to VPKRKCPDHGLDLSTYCQEDRQLICVLCPVIGAHQGHQLSTLDEA [A2P], the abundance fitness was -0.088 ± 0.04. Turning to VNKRKCPDHGLDLSTYCQEDRQLICVLCPVIGAHQGHQLSTLDEA [A2N], the abundance fitness was 0.096 ± 0.062. Take VDKRKCPDHGLDLSTYCQEDRQLICVLCPVIGAHQGHQLSTLDEA [A2D]: the abundance fitness stood at 0.053 ± 0.03. Consider VEKRKCPDHGLDLSTYCQEDRQLICVLCPVIGAHQGHQLSTLDEA [A2E], for which the abundance fitness is 0.087 ± 0.031. VMKRKCPDHGLDLSTYCQEDRQLICVLCPVIGAHQGHQLSTLDEA [A2M]: the abundance fitness was -0.009 ± 0.041.

As for VLKRKCPDHGLDLSTYCQEDRQLICVLCPVIGAHQGHQLSTLDEA [A2L], the abundance fitness was -0.031 ± 0.032. With VTKRKCPDHGLDLSTYCQEDRQLICVLCPVIGAHQGHQLSTLDEA [A2T], the abundance fitness came out at 0.12 ± 0.039. As to VHKRKCPDHGLDLSTYCQEDRQLICVLCPVIGAHQGHQLSTLDEA [A2H], the abundance fitness was found to be 0.03 ± 0.044. With VCKRKCPDHGLDLSTYCQEDRQLICVLCPVIGAHQGHQLSTLDEA [A2C], the abundance fitness was 0.04 ± 0.041. VYKRKCPDHGLDLSTYCQEDRQLICVLCPVIGAHQGHQLSTLDEA [A2Y]: the abundance fitness is -0.027 ± 0.059. The figure for VFKRKCPDHGLDLSTYCQEDRQLICVLCPVIGAHQGHQLSTLDEA [A2F] is 0.009 ± 0.065; for VIKRKCPDHGLDLSTYCQEDRQLICVLCPVIGAHQGHQLSTLDEA [A2I] it is 0.041 ± 0.039. Turning to VSKRKCPDHGLDLSTYCQEDRQLICVLCPVIGAHQGHQLSTLDEA [A2S], the abundance fitness was determined as 0.045 ± 0.033.

With VGKRKCPDHGLDLSTYCQEDRQLICVLCPVIGAHQGHQLSTLDEA [A2G], the abundance fitness was -0.04 ± 0.027. As for VRKRKCPDHGLDLSTYCQEDRQLICVLCPVIGAHQGHQLSTLDEA [A2R], the abundance fitness is -0.12 ± 0.029. For VAKRKCWDHGLDLSTYCQEDRQLICVLCPVIGAHQGHQLSTLDEA [P7W], the abundance fitness is -0.191 ± 0.035.

These data come from the Human Domainome abundance scans (Beltran et al. 2025).
